Results: paper PMC5113206 (RNA, 2016)

Experiments:
Experiment in all cases: pull-down
DHX29 (FL), His-tagged = molecular target: T1, DHX29 (FL), His-tagged (UniProt Q7Z478 1-1369)
T1 sequence (looked up): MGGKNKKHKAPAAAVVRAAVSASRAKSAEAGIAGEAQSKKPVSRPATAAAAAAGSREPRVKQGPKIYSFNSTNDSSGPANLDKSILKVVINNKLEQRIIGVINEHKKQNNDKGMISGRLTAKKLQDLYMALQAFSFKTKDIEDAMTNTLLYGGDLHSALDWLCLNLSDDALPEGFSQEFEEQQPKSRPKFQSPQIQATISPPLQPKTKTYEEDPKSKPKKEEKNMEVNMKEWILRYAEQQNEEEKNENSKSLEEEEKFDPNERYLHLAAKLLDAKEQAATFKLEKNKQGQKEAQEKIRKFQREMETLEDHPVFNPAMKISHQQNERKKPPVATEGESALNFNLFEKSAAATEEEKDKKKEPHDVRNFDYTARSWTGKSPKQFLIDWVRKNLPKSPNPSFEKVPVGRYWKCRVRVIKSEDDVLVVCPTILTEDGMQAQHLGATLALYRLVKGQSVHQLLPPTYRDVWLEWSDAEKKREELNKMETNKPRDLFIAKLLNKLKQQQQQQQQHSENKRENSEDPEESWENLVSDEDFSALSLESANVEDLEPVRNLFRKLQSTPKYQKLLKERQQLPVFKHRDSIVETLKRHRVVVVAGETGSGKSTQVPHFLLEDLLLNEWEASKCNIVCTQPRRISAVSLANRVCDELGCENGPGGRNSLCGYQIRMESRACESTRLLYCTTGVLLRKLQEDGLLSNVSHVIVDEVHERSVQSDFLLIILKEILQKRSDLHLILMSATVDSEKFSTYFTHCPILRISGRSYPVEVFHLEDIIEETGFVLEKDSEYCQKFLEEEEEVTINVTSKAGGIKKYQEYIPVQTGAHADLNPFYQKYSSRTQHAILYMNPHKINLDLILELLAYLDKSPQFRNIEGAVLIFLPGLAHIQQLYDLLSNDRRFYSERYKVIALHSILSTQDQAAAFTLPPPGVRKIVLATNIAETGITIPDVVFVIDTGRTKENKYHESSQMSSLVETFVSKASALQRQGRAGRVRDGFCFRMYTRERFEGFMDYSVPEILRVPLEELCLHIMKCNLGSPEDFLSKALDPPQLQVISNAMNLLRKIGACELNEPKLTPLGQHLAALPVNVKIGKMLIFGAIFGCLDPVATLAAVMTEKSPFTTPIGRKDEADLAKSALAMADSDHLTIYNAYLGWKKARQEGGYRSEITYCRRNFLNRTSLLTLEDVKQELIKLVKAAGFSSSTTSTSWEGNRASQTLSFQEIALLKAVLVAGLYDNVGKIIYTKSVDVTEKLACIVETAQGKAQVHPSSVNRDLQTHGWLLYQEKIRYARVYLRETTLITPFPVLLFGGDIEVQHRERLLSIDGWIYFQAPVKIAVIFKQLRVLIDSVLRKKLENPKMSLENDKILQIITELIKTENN

GST-DHX29 (248–594) = molecular target: T2, GST-DHX29 (248–594) (UniProt Q7Z478 248-594)
T2 sequence (looked up): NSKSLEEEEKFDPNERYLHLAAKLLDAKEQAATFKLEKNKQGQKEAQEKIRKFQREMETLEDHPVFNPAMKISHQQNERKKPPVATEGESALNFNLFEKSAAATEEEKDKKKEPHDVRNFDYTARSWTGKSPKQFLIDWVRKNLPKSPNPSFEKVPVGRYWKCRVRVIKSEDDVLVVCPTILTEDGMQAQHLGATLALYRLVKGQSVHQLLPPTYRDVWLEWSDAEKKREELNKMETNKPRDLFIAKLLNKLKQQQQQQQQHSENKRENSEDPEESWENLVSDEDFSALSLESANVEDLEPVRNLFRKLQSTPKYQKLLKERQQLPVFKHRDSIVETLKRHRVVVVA

GST-eIF3a (783–1382) = GST-eIF3a (783–1382) (human, UniProt Q14152 783-1382)
GST-eIF3a (783–1382), sequence (Q14152 783-1382): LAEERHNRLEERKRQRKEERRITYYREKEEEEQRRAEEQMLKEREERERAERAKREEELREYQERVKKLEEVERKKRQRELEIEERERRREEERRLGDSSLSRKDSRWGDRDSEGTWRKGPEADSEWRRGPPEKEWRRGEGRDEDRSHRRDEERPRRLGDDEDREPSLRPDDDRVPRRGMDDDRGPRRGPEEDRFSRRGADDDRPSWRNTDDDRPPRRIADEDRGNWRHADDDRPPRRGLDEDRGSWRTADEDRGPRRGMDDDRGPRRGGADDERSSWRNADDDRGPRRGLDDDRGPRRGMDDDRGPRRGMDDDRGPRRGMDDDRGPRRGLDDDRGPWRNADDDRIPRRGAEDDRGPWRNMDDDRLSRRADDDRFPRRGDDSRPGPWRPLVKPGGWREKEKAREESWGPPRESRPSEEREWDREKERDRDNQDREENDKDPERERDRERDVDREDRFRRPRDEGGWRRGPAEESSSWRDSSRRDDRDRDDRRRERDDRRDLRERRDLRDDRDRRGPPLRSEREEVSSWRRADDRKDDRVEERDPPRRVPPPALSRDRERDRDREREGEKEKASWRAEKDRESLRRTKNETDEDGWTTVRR

B1: GST-eIF3b (161–264) (domain or fragment, murine, UniProt Q8JZQ9 161-264, looked up)
chain: VLKDRPQEADGIDSVIVVDNVPQVGPDRLEKLKNVIHKIFSKFGKIINDYYPEEDGKTKGYIFLEYASPAHAVDAVKNADGYKLDKQHTFRVNLFTDFDKYMTI
B1: binds (DHX29 (FL), His-tagged).

B2: eIF3b (1–300), His-tagged (domain or fragment, murine, UniProt Q8JZQ9 1-300, looked up)
chain: MQDAENVAVPEAAEERAEPARQQPASESPPTDEAAGSGGSEVGQTEDAEEDAEAGPEPEVRAKPAAQSEEETATSPAASPTPQSAERSPSQEPSAPGKAEAVGEQARGHPSAGAEEEGGSDGSAAEAEPRALENGEADEPSFSDPEDFVDDVSEEELLGDVLKDRPQEADGIDSVIVVDNVPQVGPDRLEKLKNVIHKIFSKFGKIINDYYPEEDGKTKGYIFLEYASPAHAVDAVKNADGYKLDKQHTFRVNLFTDFDKYMTISDEWDIPEKQPFKDLGNLRYWLEEAECRDQYSVIFE
B2: binds (GST-DHX29 (248–594)).

B3: DHX29 (1–247), His-tagged (domain or fragment, UniProt Q7Z478 1-247, looked up)
chain: MGGKNKKHKAPAAAVVRAAVSASRAKSAEAGIAGEAQSKKPVSRPATAAAAAAGSREPRVKQGPKIYSFNSTNDSSGPANLDKSILKVVINNKLEQRIIGVINEHKKQNNDKGMISGRLTAKKLQDLYMALQAFSFKTKDIEDAMTNTLLYGGDLHSALDWLCLNLSDDALPEGFSQEFEEQQPKSRPKFQSPQIQATISPPLQPKTKTYEEDPKSKPKKEEKNMEVNMKEWILRYAEQQNEEEKNE
B3: binds (GST-eIF3a (783–1382)).
